Each block holds one binder with its values, some of them ahead of it. cellulose membrane = peptide bound to a cellulose membrane through the C-terminus
What was measured:
[1] = biological target: T1, 13-mer peptide, amino acids 61 to 73 of the HLA-DR β chain (DRB1*15011) (human); assay: SPOT 13-mer peptide array on cellulose membrane, chemiluminescence
T1 peptide: Ac-WNSQKDILEQARA-{cellulose membrane}
Procedure: (§1) The epitope of each antibody was analyzed by Western blotting in accordance with a conventional technique. In simple terms, a cellulose or PVDF membrane was blocked with Block Ace (Yukijirushi), etc., each antibody was allowed to react therewith at 1 μg/mL as a primary antibody and at 0.5 μg/mL as a secondary antibody using […], the HRP-labeled anti-human antibody (e.g., DAKO) was allowed to react therewith, and the chemiluminescence was detected using a chemiluminescent reagent (e.g., ECL Western blotting detection reagent, Amersham Bioscience) and a chemiluminescence detector (e.g., LAS-1000, Fuji Film).
(§2) The subsequent reaction was carried out based on conventional Western blot analysis (see, for example, Reineke, U. et al., (2001), “Epitope mapping with synthetic peptides prepared by SPOT synthesis.” Antibody Engineering (Springer Lab Manual) Eds.: Kontermann/Dubel, 433459). In the analysis, LumilmagerTM (Boehringer-Mannheim) was used to represent the color intensity in each spot by numerical values.

[2] = biological target: T2, 13-mer peptide, amino acids 65 to 77 of the HLA-DR β chain (DRB1*15011) (human); assay: as above
T2 peptide: Ac-KDILEQARAAVDT-{cellulose membrane}
Procedure: as §1, §2

[3] = biological target: T3, SEQ ID NO 37 (human); assay: polymorphic 61-73 peptide spots, chemiluminescence
T3 peptide: Ac-WNSQKDLLEDRRA-{cellulose membrane}
Procedure: as §1
(§3) The subsequent reaction was carried out based on conventional Western blot analysis (see, for example, Reineke, U. et al., (2001), “Epitope mapping with synthetic peptides prepared by SPOT synthesis.” Antibody Engineering (Springer Lab Manual) Eds.: Kontermann/Dubel, 433459). In the analysis, LumilmagerTM (Boehringer-Mannheim) was used to represent the color intensity in each spot by numerical values. […]

[4] = biological target: T4, SEQ ID NO 27 (human); assay: polymorphic 61-73 peptide spots, chemiluminescence
T4 peptide: Ac-WNSQKDFLEQARA-{cellulose membrane}
Procedure: as §1, §3

[5] = biological target: T5, SEQ ID NO 33 (human); assay: polymorphic 61-73 peptide spots, chemiluminescence
T5 peptide: Ac-WNSQKDILEQARA-{cellulose membrane}
Procedure: as §1, §3

[6] = biological target: T6, SEQ ID NO 26 (human); assay: polymorphic 61-73 peptide spots, chemiluminescence
T6 peptide: Ac-WNSQKDFLEDERA-{cellulose membrane}
Procedure: as §1, §3

[7] = biological target: T7, SEQ ID NO 34 (human); assay: polymorphic 61-73 peptide spots, chemiluminescence
T7 peptide: Ac-WNSQKDLLEQRRA-{cellulose membrane}
Procedure: as §1, §3

[8] = biological target: T8, SEQ ID NO 31 (human); assay: polymorphic 61-73 peptide spots, chemiluminescence
T8 peptide: Ac-WNSQKDILEDRRG-{cellulose membrane}
Procedure: as §1, §3

[9] = biological target: T9, SEQ ID NO 35 (human); assay: polymorphic 61-73 peptide spots, chemiluminescence
T9 peptide: Ac-WNSQKDLLEQARA-{cellulose membrane}
Procedure: as §1, §3

[10] = biological target: T10, SEQ ID NO 29 (human); assay: polymorphic 61-73 peptide spots, chemiluminescence
T10 peptide: Ac-WNSQKDILEQKRG-{cellulose membrane}
Procedure: as §1, §3

[11] = biological target: T11, SEQ ID NO 39 (human); assay: polymorphic 61-73 peptide spots, chemiluminescence
T11 peptide: Ac-WNSQKDLLEDERA-{cellulose membrane}
Procedure: as §1, §3

[12] = biological target: T12, SEQ ID NO 36 (human); assay: polymorphic 61-73 peptide spots, chemiluminescence
T12 peptide: Ac-WNSQKDLLEQKRG-{cellulose membrane}
Procedure: as §1, §3

[13] = biological target: T13, SEQ ID NO 30 (human); assay: polymorphic 61-73 peptide spots, chemiluminescence
T13 peptide: Ac-WNSQKDILEDRRA-{cellulose membrane}
Procedure: as §1, §3

[14] = biological target: T14, SEQ ID NO 25 (human); assay: polymorphic 61-73 peptide spots, chemiluminescence
T14 peptide: Ac-WNSQKDFLERRRA-{cellulose membrane}
Procedure: as §1, §3

[15] = biological target: T15, SEQ ID NO 38 (human); assay: polymorphic 61-73 peptide spots, chemiluminescence
T15 peptide: Ac-WNSQKDLLERRRA-{cellulose membrane}
Procedure: as §1, §3

[16] = biological target: T16, SEQ ID NO 28 (human); assay: polymorphic 61-73 peptide spots, chemiluminescence
T16 peptide: Ac-WNSQKDILEDERA-{cellulose membrane}
Procedure: as §1, §3

[17] = biological target: T17, SEQ ID NO 32 (human); assay: polymorphic 61-73 peptide spots, chemiluminescence
T17 peptide: Ac-WNSQKDILEDKRA-{cellulose membrane}
Procedure: as §1, §3

[18] = biological target: T18, SEQ ID NO 24 (human); assay: polymorphic 61-73 peptide spots, chemiluminescence
T18 peptide: Ac-WNSQKDFLEDRRA-{cellulose membrane}
Procedure: as §1, §3

[19] = biological target: T19, SEQ ID NO 42 (human); assay: alanine-substituted 61-73 peptide spots, chemiluminescence
T19 construct: The entry already carries the substitution
T19 peptide: Ac-WNSQKDLLEQARA-{cellulose membrane}
Procedure: as §1, §2
(§4) Further, 12 peptides (SEQ ID Nos: 40 to 51) in which each amino acid has been substituted with alanine ([…] if it is originally alanine) were subjected to Western blotting under similar conditions. In the analysis, LAS2000 and ImageGauge analyzing software (Fuji Photo Film) were used to represent the color intensity in each spot by numerical values.

[20] = biological target: T20, SEQ ID NO 50 (human); assay: as above
T20 construct: The entry already carries the substitution
T20 peptide: Ac-WNSQKDLLAQRRA-{cellulose membrane}
Procedure: as §1, §2, §4

[21] = biological target: T21, SEQ ID NO 45 (human); assay: as above
T21 construct: The entry already carries the substitution
T21 peptide: Ac-WASQKDLLEQRRA-{cellulose membrane}
Procedure: as §1, §2, §4

[22] = biological target: T22, SEQ ID NO 41 (human); assay: as above
T22 construct: The entry already carries the substitution
T22 peptide: Ac-WNSQKDLLEARRA-{cellulose membrane}
Procedure: as §1, §2, §4

[23] = biological target: T23, SEQ ID NO 43 (human); assay: as above
T23 construct: The entry already carries the substitution
T23 peptide: Ac-WNSQKDLLEQRRG-{cellulose membrane}
Procedure: as §1, §2, §4

[24] = biological target: T24, SEQ ID NO 47 (human); assay: as above
T24 construct: The entry already carries the substitution
T24 peptide: Ac-WNSAKDLLEQRRA-{cellulose membrane}
Procedure: as §1, §2, §4

[25] = biological target: T25, SEQ ID NO 48 (human); assay: as above
T25 construct: The entry already carries the substitution
T25 peptide: Ac-WNSQADLLEQRRA-{cellulose membrane}
Procedure: as §1, §2, §4

[26] = biological target: T26, SEQ ID NO 49 (human); assay: as above
T26 construct: The entry already carries the substitution
T26 peptide: Ac-WNSQKALLEQRRA-{cellulose membrane}
Procedure: as §1, §2, §4

[27] = biological target: T27, SEQ ID NO 40 (human); assay: as above
T27 construct: The entry already carries the substitution
T27 peptide: Ac-WNSQKDALEQRRA-{cellulose membrane}
Procedure: as §1, §2, §4

[28] = biological target: T28, SEQ ID NO 51 (human); assay: as above
T28 construct: The entry already carries the substitution
T28 peptide: Ac-WNSQKDLLEQRAA-{cellulose membrane}
Procedure: as §1, §2, §4

[29] = biological target: T29, SEQ ID NO 44 (human); assay: as above
T29 construct: The entry already carries the substitution
T29 peptide: Ac-ANSQKDLLEQRRA-{cellulose membrane}
Procedure: as §1, §2, §4

[30] = biological target: T30, SEQ ID NO 46 (human); assay: as above
T30 construct: The entry already carries the substitution
T30 peptide: Ac-WNAQKDLLEQRRA-{cellulose membrane}
Procedure: as §1, §2, §4

- binding result [1]: binds
- binding result [2]: binds
- binding result [3]: binds
- binding result [4]: binds
- binding result [5]: binds
- binding result [6]: binds
- binding result [7]: binds
- binding result [8]: binds
- binding result [9]: binds
- binding result [10]: binds
- binding result [11]: binds
- binding result [12]: binds
- binding result [13]: binds
- binding result [14]: binds
- binding result [15]: binds
- binding result [16]: binds
- binding result [17]: binds
- binding result [18]: binds
- binding result [19]: binds
- binding result [20]: no binding (tested: 1 µg/mL)
- binding result [21]: binds
- binding result [22]: binds
- binding result [23]: binds
- binding result [24]: binds
- binding result [25]: no binding (tested: 1 µg/mL)
- binding result [26]: no binding (tested: 1 µg/mL)
- binding result [27]: binds
- binding result [28]: no binding (tested: 1 µg/mL)
- binding result [29]: binds
- binding result [30]: binds
B1: HD8 (antibody, IgG2, V domains shown)
VH: QVQLQHSGPGLVKPSQTLSLTCAISGDSVSSNSASWNWIRQSPSRGLEWLGRTYYRSKWYNDYAVSVKSRIVINPDTSKNQFSLQLNSVTPEDTAVYYCARENFYGSETCHKKYYCYGMDVWGQGTTVTVSS
VL: AIQLTQSPSSLSASVGDRVTITCRASQGISSALAWYQQKPGKAPKLLIYDASSLESGVPSRFSGSGSGTDFTLTISSLQPEDFATYYCQQFNSFPLTFGGGTKVEIK
notes: also called antibody produced from the hybridoma HD8 (FERM BP-7773)

- binding result [1]: binds
B2: HD4 (antibody, IgG1, V domains shown)
VH: EVQLLESGGGLVQPGGSLRLSCAASGFTFSSYAMTWVRQAPGKGLEWVSGISGGGDSTYYADSVKGRFTISRDNSKNTLYLQMNSLRAEDTAVYYCARDHGSGSYYPYWFDYWGQGTLVTVSS
VL: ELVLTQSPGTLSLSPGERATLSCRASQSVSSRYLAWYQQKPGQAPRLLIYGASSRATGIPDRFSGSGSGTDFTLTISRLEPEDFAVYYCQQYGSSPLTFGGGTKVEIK
notes: also called antibody produced from the hybridoma HD4 (FERM BP-7771)
